Source: the supplement of paper PMC12042874
± gives the uncertainty stated by the source.

Test: amyloid nucleation score (Sup35N fusion, yeast selection) (log enrichment); library NNK1; higher = more nucleation; inactive = no reads after selection
How it was run: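 Peptides of 20 random codons, each fused to Sup35N, were expressed in psi-negative yeast. Cells were induced with 100 μM copper sulfate for 24 hours and grown 7 days at 30°C on medium lacking adenine and uracil, and plasmid inserts before and after selection were Illumina-sequenced. Nucleation scores are DiMSum log enrichments of output over input reads, centred on the mode score of non-aggregating sequences, and sequences under 100 input reads were excluded.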

MGEYSRLSARSGWLDTPVDG and GLPKSFM are within error of each other in amyloid nucleation score: -0.496 ± 0.67 for the first, -0.981 ± 1.3 for the second.

FLILLGLVEDGTLYAVRTVG and YGSNWLEGVGLYRGVARQSW are within error of each other in amyloid nucleation score: -0.849 ± 0.8 for the first, -0.781 ± 0.43 for the second.

YLVTGVGYGGCNIRLWE and FPLGTQDRIIRFVESQYDSM are within error of each other in amyloid nucleation score: 0.355 ± 0.83 for the first, -0.516 ± 1.7 for the second.

IYCHWNGFRGPYVIPRGCVV and TGLYSYIGFSDGYCVYEMIT are within error of each other in amyloid nucleation score: 0.819 ± 0.51 for the first, -0.122 ± 1.6 for the second.

VFFKKAIIFRSKV and PLPPLVMLPQ are within error of each other in amyloid nucleation score: 0.318 ± 0.33 for the first, -0.481 ± 0.8 for the second.

First: KFNITFVSVKSYKVPLSLDI
Second: MWYVHHCQGSVTLLARGRLC
The amyloid nucleation score of the first is higher: 4.81 ± 0.066 for the first, 0.886 ± 1 for the second.

CGLKNFGVLSFRSIDCQRKG and DAALVIYLL are within error of each other in amyloid nucleation score: -1.48 ± 1.1 for the first, -0.6 ± 0.52 for the second.

Compared with SYQVRDVIKSF, SSSKLLR is lower in amyloid nucleation score: 4.52 ± 0.1 for the first, -0.4 ± 0.7 for the second.

PSCILMNLEVYND and LVLQRDIGSACVDCHGVGKA are within error of each other in amyloid nucleation score: 0.827 ± 0.42 for the first, 1.17 ± 0.52 for the second.

Going from CRASYGFHVQRDALDR to WFPCVADINICPLGLYHSEG, the amyloid nucleation score rises from -0.438 ± 0.75 to 8.033 ± 0.062.

Compared with LWFQLLMLEFSRNKPIQTVG, WVGFGDVKSVTVMLYAPAWT is higher in amyloid nucleation score: -0.138 ± 0.64 for the first, 5.04 ± 0.094 for the second.

HYRCVRGYSFFVLLCDSRIQ and VADCPCLGLVNTLAETMNVC are within error of each other in amyloid nucleation score: -0.497 ± 0.93 for the first, 0.243 ± 0.6 for the second.

Going from NPFCFMMRTGRSGSGWVKRR to CNLSTCSFHFHFLT, the amyloid nucleation score rises from 0.088 ± 0.54 to 4.53 ± 0.11.

First: TCLRACVHLVNYGVDMFSDK
Second: VHSCYLVLARQWNVIKISHI
The amyloid nucleation score of the first is higher: 1.83 ± 0.32 for the first, 0.039 ± 0.43 for the second.

IASECWET and NYAQVLRTSFTNGVLTLKEE are within error of each other in amyloid nucleation score: -0.391 ± 0.52 for the first, -0.526 ± 0.86 for the second.

IRVINYFVWSWTLTIIADFI and GPSWFGVPTAAFF are within error of each other in amyloid nucleation score: -1.25 ± 2.4 for the first, 0.502 ± 0.43 for the second.

Going from TLKFGSYQAVRLSHSGKPDD to PSSACCGSHFLCEQEFMICY, the amyloid nucleation score falls from 2.55 ± 0.1 to 0.146 ± 0.71.

LSFMMRGSIHWPLTTLRACS and IVKWLMGMHWLMLAHGV are within error of each other in amyloid nucleation score: 1.05 ± 0.6 for the first, 0.181 ± 1.4 for the second.

QRVVKVWWDTKPYVSMGSFL and GSWQDSRRNFWSGRGMFERV are within error of each other in amyloid nucleation score: 0.563 ± 0.44 for the first, 0.484 ± 0.47 for the second.

First: SAMAWIPFTISPRFEFRTCN
Second: FKWLTVRGNDRGILDDG
The amyloid nucleation score of the first is higher: 5.16 ± 0.061 for the first, -0.158 ± 0.52 for the second.

VSVNTVFH and LLYTVY are within error of each other in amyloid nucleation score: 0.36 ± 0.44 for the first, -0.849 ± 1.2 for the second.

FKRCKRIPDPQSIGSRHFGA and MLFDV are within error of each other in amyloid nucleation score: 0.568 ± 0.58 for the first, -0.077 ± 0.21 for the second.

First: INTKRVRSRHSTR
Second: KVIFYEFPTSQRFMGSMYDM
The amyloid nucleation score of the first is lower: -0.502 ± 0.79 for the first, 1.88 ± 0.19 for the second.

NISSQEPISRAATSRKVAGQ and EKGLEFHLWLRPVLRACVGY are within error of each other in amyloid nucleation score: 0.466 ± 1.4 for the first, 1.01 ± 1.1 for the second.

SCQSALLRILGSRVSFQARA and NPFWWVRPL are within error of each other in amyloid nucleation score: -0.192 ± 0.49 for the first, 0.284 ± 0.81 for the second.

First: SEYTLLTFKSFGNRAPHFVG
Second: FVLRV
The amyloid nucleation score of the first is higher: 1.75 ± 0.19 for the first, 0.423 ± 0.47 for the second.

First: VSVTVLGRWR
Second: FCYSTI
The amyloid nucleation score of the first is higher: 3.55 ± 0.19 for the first, 0.487 ± 0.81 for the second.

Going from TISYLS to RFIGVQQMVCVTYNWFKVLG, the amyloid nucleation score rises from 0.198 ± 0.39 to 1.16 ± 0.19.

First: ITCLRSCLLFNFSGCTTSDQ
Second: ICSYTSIVYLFWDDLSLSTL
The amyloid nucleation score of the first is higher: 4.11 ± 0.071 for the first, 1.7 ± 0.64 for the second.

SFDADFSFRVRVFYDQSISI and FLRTD are within error of each other in amyloid nucleation score: -0.035 ± 0.48 for the first, 0.171 ± 1.2 for the second.

LVWSGLHVGGHSWVGFTGVV and DLPWSMLKVL are within error of each other in amyloid nucleation score: 0.241 ± 0.61 for the first, 0.689 ± 1.2 for the second.

TGCRHFLQVCSVHRRRGSVC and MVHKWVIFFNRTVCRLMLPV are within error of each other in amyloid nucleation score: 0.022 ± 0.78 for the first, 0.589 ± 0.37 for the second.

Compared with GLTINNSI, DLIAARLAALF is lower in amyloid nucleation score: 0.588 ± 0.38 for the first, -0.964 ± 0.39 for the second.

Compared with RWSLGGICVYVGLNEFVLMI, VEIYWWGYPPKNSI is lower in amyloid nucleation score: 2.56 ± 0.22 for the first, -0.239 ± 0.39 for the second.

Compared with RGELVPHVVMYNLWKL, YCQCVCFSAMYSKTSRLNMG is higher in amyloid nucleation score: 4.21 ± 0.082 for the first, 6.744 ± 0.066 for the second.

TTDSVDDTRKYAYGFIACGV and MCFLLSYLRWLDYYSYVVVC are within error of each other in amyloid nucleation score: 0.114 ± 0.47 for the first, 0.962 ± 0.42 for the second.

First: EGVVMRISWKNTNGHVYEKG
Second: VGNEWSVLRLGGGVGSIFL
The amyloid nucleation score of the first is higher: 2.06 ± 0.23 for the first, -1.07 ± 1.3 for the second.

GRLSGYEWGRKSRSPGRWTV and VSFSCLMSPE are within error of each other in amyloid nucleation score: 0.438 ± 1.1 for the first, 0.126 ± 0.32 for the second.

Compared with VILSYRLSEWGSSGDGDGRR, PMSRIKWILLSGLSKGLSYG is higher in amyloid nucleation score: -0.562 ± 0.8 for the first, 2.41 ± 0.17 for the second.

With YNVIWSMVGEYLHSSCYGPV the amyloid nucleation score was “inactive”.
In the case of HWFESDFAI, the amyloid nucleation score is reported as “inactive”.
With YLSFSSAHDDIEWVGISCR the amyloid nucleation score was “inactive”.
With WYSVKESLGSPSLPSQFLST the amyloid nucleation score was “inactive”.
For CALAIRIVCS, the amyloid nucleation score was “inactive”.
For YIYRDTYLRTPKLGSHMYCL, the amyloid nucleation score was “inactive”.
In the case of TNITNLSSFVMDDTGWSVNE, the amyloid nucleation score is reported as “inactive”.
